These results are taken from patent publication US20150330993A1.

The target in this experiment is purified human dimeric IgA (dIgA) (human). The experiment is described as follows: ELISA, dIgA held on anti-IgA coated plates, detected with R/HpIgR, anti-secretory component and anti-mouse HRP.

Turning to “chimeric rabbit/human polymeric Ig receptor R/HpIgR (rabbit domain 1, human domains 2-5) (from UniProt P01833 1-638)”, the lowest dIgA concentration tested, still detected is 31 ng/mL.
